Data as given in patent US11690918B2, “Pyrrolobenzodiazepine-anti-CD22 antibody conjugates” (ADC THERAPEUTICS S.A., priority 2012, dated 2023).

How the values were obtained:
SU-DHL-1 cells = test: In vitro cytotoxicity of ADCs, SU-DHL-1 (CD22 -ve control); type: cell-based; conditions: 4 days incubation, Alamar Blue
Method: (§1) WSU-DLCL2 and SU-DHL-1 cells were from the Leibniz Institute DSMZ-German Collection of Microorganisms and Cell Cultures. Ramos and Daudi cells were from the American Type Culture Collection. Cell culture medium was RPMI 1640 supplemented with L-Glutamine and 10% FBS. Cells were grown at 37° C., 5% CO2, in a humidified incubator.
(§2) The concentration and viability of cultures of suspended cells (at up to 1×10^6/ml) were determined by mixing 1:1 with Trypan blue and counting clear (live)/blue (dead) cells with a haemocytometer. The cell suspension was diluted to the required seeding density (generally 10^5/ml) and dispensed into 96-well flat bottomed plates. For Alamar blue assay, 100 μl/well was dispensed in black-well plates. […] After incubation for 4 days, cell viability was measured by either Alamar blue or MTS assay.
(§3) AlamarBlue® (Invitrogen, catalogue number DAL1025) was dispensed (20 μl per well) into each well and incubated for 4 hours at 37° C. in the CO2-gassed incubator. Well fluorescence was measured at excitation 570 nm, emission 585 nm. Cell survival (%) was calculated from the ratio of mean fluorescence in the 4 ADC-treated wells compared to the mean fluorescence in the 4 control wells (100%).
(§4) MTS (Promega, catalogue number G5421) was dispensed (20 μl per well) into each well and incubated for 4 hours at 37° C. in the CO2-gassed incubator. Absorbance was measured at 490 nm. […]

Daudi cells = test: In vitro cytotoxicity of ADCs, Daudi; type: cell-based; conditions: FIG. 1, Alamar Blue
Method: as §1, §2, §3, §4

Ramos cells = test: In vitro cytotoxicity of ADCs, Ramos; type: cell-based, human; conditions: FIG. 1, Alamar Blue
Method: as §1, §2, §3, §4

WSU-DLCL2 cells = test: In vitro cytotoxicity of ADCs, WSU-DLCL2; type: cell-based; conditions: FIG. 1, Alamar Blue
Method: as §1, §2, §3, §4

Ramos xenograft = test: In vivo anti-tumour activity, Ramos mouse xenograft model; conditions: NCr nu/nu mice, single dose 1.0 mg/kg IV, FIG. 3
Method: The CD22+(ve) human Burkitt's lymphoma-derived cell line Ramos was used in a mouse xenograft model to test the in vivo efficacy of the Epratuzumab-A ADC. As a non-CD22-binding control, the anti-HIV gp120 antibody, B12, linked to A was used in the same model.
Procedures: • Set up CR female NCr nu/nu mice with l× Ramos-SPN tumor cells in 0% Matrigel sc in flank. • Cell Injection Volume is 0.1 mL/mouse. • Age at Start Date: 8 to 12 weeks. • Perform a pair match when tumors reach an average size of 100-150 mm^3 and begin treatment. • Body Weight: qd×5 then bi-wk to end • Caliper Measurement: bi-wk to end • Report any adverse reactions or death immediately. • Any individual animal with a single observation of >30% body weight loss or three consecutive measurements of >25% body weight loss will be euthanized. • Any group with two measurements of mean body weight loss of >20% or >10% mortality will stop dosing. The group is not euthanized and recovery is allowed. Within a group with >20% weight loss, individuals hitting the individual body weight loss endpoint will be euthanized. […] Animals are to be monitored individually. […]
For the calculation of group mean tumor volumes the following rule was applied: when an animal exited the study due to tumor size, the final tumor volume recorded for the animal was included with the data used to calculate the mean volume at subsequent time points. […]

B1: Epratuzumab-A: ADC targeted to CD22, generated by conjugating anti-CD22 antibody Epratuzumab to warhead-linker A (conjugate)
VH: QVQLVQSGAEVKKPGSSVKVSCKASGYTFTSYWLHWVRQAPGQGLEWIGYINPRNDYTEYNQNFKDKATITADESTNTAYMELSSLRSEDTAFYFCARRDITTFYWGQG
VL: DIQLTQSPSSLSASVGDRVTMSCKSSQSVLYSANHKNYLAWYQQKPGKAPKLLIYWASTRESGVPSRFSGSGSGTDFTFTISSLQPEDIATYYCHQYLSSWTFGQG
EC50 SUDHL1 (SU-DHL-1 cells): ~6.776 µg/mL
cytotoxicity against Daudi cells (Daudi cells): significant cytotoxicity
cytotoxicity against Ramos cells (Ramos cells): significant cytotoxicity
cytotoxicity against WSU-DLCL2 cells (WSU-DLCL2 cells): significant cytotoxicity
anti-tumor activity (mean tumour volume) (Ramos xenograft): most potent anti-tumor activity
